Data taken from patent publication US20230416330A1, “Optimized GIP Peptide Analogues” (Antag Therapeutics ApS, priority 2019, published 2023).
Starred links: 1 amine or outer side, 2 acyl side, 3 side chain; linkers in the order of their positions; H or OH if unused. Residues, ends and D or L forms follow the SMILES beside them. No end group written: not given here. *: point of attachment. C16 diacid = O=C(O)CCCCCCCCCCCCCCC(=O)*; Glutaryl = O=C(CCCC(=O)[*:2])[*:1]

T1: human GIP receptor (Homo sapiens, UniProt P48546)
T1 construct: host or cells: HEK-293 cells, transient transfection (Lipofectamine 2000), cDNA in pCMV-Script vector
T1 sequence (P48546 22-466): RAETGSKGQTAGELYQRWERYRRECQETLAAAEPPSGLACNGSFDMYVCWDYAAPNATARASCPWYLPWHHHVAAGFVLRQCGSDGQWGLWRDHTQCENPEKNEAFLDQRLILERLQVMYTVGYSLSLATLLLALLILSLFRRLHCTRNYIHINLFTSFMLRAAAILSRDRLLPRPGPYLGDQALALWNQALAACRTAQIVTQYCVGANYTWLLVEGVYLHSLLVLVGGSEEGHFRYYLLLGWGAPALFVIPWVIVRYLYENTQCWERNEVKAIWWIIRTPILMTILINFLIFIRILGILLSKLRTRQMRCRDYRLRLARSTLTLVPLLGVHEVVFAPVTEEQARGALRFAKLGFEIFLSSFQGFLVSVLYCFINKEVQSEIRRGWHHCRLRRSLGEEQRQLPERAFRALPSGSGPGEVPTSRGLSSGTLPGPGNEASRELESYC

T2: human GIP receptor (human, UniProt P48546 22-466)
T2 sequence (looked up): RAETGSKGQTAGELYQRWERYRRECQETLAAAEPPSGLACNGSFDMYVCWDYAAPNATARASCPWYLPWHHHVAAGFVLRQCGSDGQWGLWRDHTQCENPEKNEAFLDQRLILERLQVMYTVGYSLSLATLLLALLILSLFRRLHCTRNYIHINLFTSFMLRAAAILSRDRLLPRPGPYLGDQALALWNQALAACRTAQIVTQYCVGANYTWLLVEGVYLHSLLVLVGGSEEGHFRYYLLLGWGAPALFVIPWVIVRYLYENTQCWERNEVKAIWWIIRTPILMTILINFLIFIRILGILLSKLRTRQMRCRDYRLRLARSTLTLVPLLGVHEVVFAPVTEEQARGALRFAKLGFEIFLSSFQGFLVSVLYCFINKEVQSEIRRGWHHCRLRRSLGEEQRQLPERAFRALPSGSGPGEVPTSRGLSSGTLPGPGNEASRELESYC


Tests used:
[1] = Solubility by visual inspection of peptide solutions; type: physicochemical; conditions: TFA
In short: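 Solubility scored by eye: clear, colorless appearance after gentle mixing. Samples prepared at 1, 5, 7.5 or 15 mg/ml in either pH 7.4 water (NaOH-adjusted) or 50 mM sodium phosphate buffer, pH 7.4.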

[2] = Physical stability: fibril formation in Thioflavin T (ThT) assay with agitation; type: physicochemical; conditions: TFA, 25° C., agitation
In short: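 Read-out is continuous ThT fluorescence at 486 nm, with lag time taken where signal reaches 10% between pre- and post-transition baselines. Filtered samples (1, 5, 7.5 or 15 mg/ml; pH 7.4 phosphate buffer or NaOH-adjusted water) were stressed at 25° C. by orbital rotation at 300 rpm with one silica bead per well.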

human GIP receptor [3] = molecular target: T1, human GIP receptor; assay: cAMP assay Alternative 3 (Schild analysis), antagonist potency pKb; type: cell-based
Protocol: Antagonist potency was also determined by Schild analysis. GIP1-42 EC50 was measured in the absence of antagonist and EC50′ was measured in the presence of increasing concentrations of antagonist. These values were used to calculate a dose ratio (DR=EC50′/EC50) for each antagonist concentration, and log(DR-1) was plotted against log(antagonist concentration).
The in vitro functional assessment of compounds towards human GIP receptor was determined in HEK-293 cells transiently expressing the receptor. On the day of the assay, cells were resuspended in HBSS buffer (Gibco, 14025-50) supplemented with […] (Gibco, 15630-106), 0.1% Pluronic F-68 (Gibco, 24040-032) and 0.1% casein (Sigma, C4765), and plated in 384-well plates at a density of 3500 cells/well. […] The intracellular cAMP was quantitatively determined using the CisBio cAMP Dynamic 2 HTRF Assay Kit. […]
The cAMP-d2 conjugate and the antibody anti-cAMP-Cryptate, both diluted in lysis buffer provided in the kit, were added to the cells according to the manufacturer's protocol. The resulting competitive assay was incubated for 60 minutes at room temperature, and the signal was detected by using a PerkinElmer Envision® instrument with excitation at 320 nm and emission at 665 nm and 620 nm. […]

human GIP receptor [4] = molecular target: T2, human GIP receptor; assay: cell-based or functional assay
human GIP receptor [5] = molecular target: T2, human GIP receptor; assay: cell-based or functional assay; remark: listed apart in the source

Row | Molecule | Visual appearance ([1]; 1 mg/ml, Phosphate (7.4)) | Visual appearance ([1]; 5 mg/ml, MilliQ) | Avr lag time (h) ([2]; 1 mg/ml, Phosphate (7.4)) | Avr lag time (h) ([2]; 5 mg/ml, MilliQ) | Kb (human GIP receptor [3]) | cAMP antagonism nM (IC50, CisBio assay) (human GIP receptor [4]) | cAMP antagonism pIC50 (CisBio assay) (human GIP receptor [4]) | nM (Kb, Schild analysis, cAMP) (human GIP receptor [5]) | pKb (Schild analysis, cAMP) (human GIP receptor [5])
1 | CC[C@H](C)[C@H](NC(=O)[C@H](CO)NC(=O)[C@H](Cc1ccc(O)cc1)NC(=O)[C@H](CC(=O)O)NC(=O)[C@H](CO)NC(=O)[C@@H](NC(=O)[C@H](Cc1ccccc1)NC(=O)[C@@H](NC(=O)CNC(=O)CCCC(=O)O)[C@@H](C)O)[C@@H](C)CC)C(=O)N[C@@H](C)C(=O)N[C@@H](CCSC)C(=O)N[C@@H](CC(=O)O)C(=O)N[C@@H](CCCCN)C(=O)N[C@H](C(=O)N[C@@H](CCCCNC(=O)CCCCCCCCCCCCCCC(=O)O)C(=O)N[C@@H](CCC(N)=O)C(=O)N[C@@H](CCC(N)=O)C(=O)N[C@@H](CC(=O)O)C(=O)N[C@@H](Cc1ccccc1)C(=O)N[C@H](C(=O)N[C@@H](CCC(=O)O)C(=O)N[C@@H](Cc1c[nH]c2ccccc12)C(=O)N[C@@H](CC(C)C)C(=O)N[C@@H](CC(C)C)C(=O)N[C@@H](C)C(=O)N[C@@H](CCC(N)=O)C(=O)N[C@@H](CCCCN)C(=O)N1CCC[C@H]1C(=O)N[C@@H](CO)C(=O)N[C@@H](CO)C(=O)NCC(=O)N[C@@H](C)C(=O)N1CCC[C@H]1C(=O)N1CCC[C@H]1C(=O)N1CCC[C@H]1C(=O)N[C@@H](CO)C(=O)O)C(C)C)[C@@H](C)CC [AT762] (Glutaryl-GTFISDYSIAMDKIK(C16 diacid)QQDFVEWLLAQKPSSGAPPPS-OH) | Clear | Clear | fnd (Fnd = fibrils not detected within experiment time (96 hours) with agitation.) | fnd (Fnd = fibrils not detected within experiment time (96 hours) with agitation.) | 0.15 nM | – | – | – | –
2 | EGTFISDYSIAMDKIK(C16 diacid)QQDFVNWLLAQKPSSGAPPPS-OH (N-terminus assumed; SMILES CC[C@H](C)[C@H](NC(=O)[C@H](CO)NC(=O)[C@H](Cc1ccc(O)cc1)NC(=O)[C@H](CC(=O)O)NC(=O)[C@H](CO)NC(=O)[C@@H](NC(=O)[C@H](Cc1ccccc1)NC(=O)[C@@H](NC(=O)CNC(=O)[C@@H](N)CCC(=O)O)[C@@H](C)O)[C@@H](C)CC)C(=O)N[C@@H](C)C(=O)N[C@@H](CCSC)C(=O)N[C@@H](CC(=O)O)C(=O)N[C@@H](CCCCN)C(=O)N[C@H](C(=O)N[C@@H](CCCCNC(=O)CCCCCCCCCCCCCCC(=O)O)C(=O)N[C@@H](CCC(N)=O)C(=O)N[C@@H](CCC(N)=O)C(=O)N[C@@H](CC(=O)O)C(=O)N[C@@H](Cc1ccccc1)C(=O)N[C@H](C(=O)N[C@@H](CC(N)=O)C(=O)N[C@@H](Cc1c[nH]c2ccccc12)C(=O)N[C@@H](CC(C)C)C(=O)N[C@@H](CC(C)C)C(=O)N[C@@H](C)C(=O)N[C@@H](CCC(N)=O)C(=O)N[C@@H](CCCCN)C(=O)N1CCC[C@H]1C(=O)N[C@@H](CO)C(=O)N[C@@H](CO)C(=O)NCC(=O)N[C@@H](C)C(=O)N1CCC[C@H]1C(=O)N1CCC[C@H]1C(=O)N1CCC[C@H]1C(=O)N[C@@H](CO)C(=O)O)C(C)C)[C@@H](C)CC) [AT364] | – | – | – | – | – | 1.12 nM | 9 | 0.77 nM | 9.1
3 | EGTFISDYSIAMDKIK(C16 diacid)QQDFVNWLLAQK-NH2 (N-terminus assumed; SMILES CC[C@H](C)[C@H](NC(=O)[C@H](CO)NC(=O)[C@H](Cc1ccc(O)cc1)NC(=O)[C@H](CC(=O)O)NC(=O)[C@H](CO)NC(=O)[C@@H](NC(=O)[C@H](Cc1ccccc1)NC(=O)[C@@H](NC(=O)CNC(=O)[C@@H](N)CCC(=O)O)[C@@H](C)O)[C@@H](C)CC)C(=O)N[C@@H](C)C(=O)N[C@@H](CCSC)C(=O)N[C@@H](CC(=O)O)C(=O)N[C@@H](CCCCN)C(=O)N[C@H](C(=O)N[C@@H](CCCCNC(=O)CCCCCCCCCCCCCCC(=O)O)C(=O)N[C@@H](CCC(N)=O)C(=O)N[C@@H](CCC(N)=O)C(=O)N[C@@H](CC(=O)O)C(=O)N[C@@H](Cc1ccccc1)C(=O)N[C@H](C(=O)N[C@@H](CC(N)=O)C(=O)N[C@@H](Cc1c[nH]c2ccccc12)C(=O)N[C@@H](CC(C)C)C(=O)N[C@@H](CC(C)C)C(=O)N[C@@H](C)C(=O)N[C@@H](CCC(N)=O)C(=O)N[C@@H](CCCCN)C(N)=O)C(C)C)[C@@H](C)CC) [AT158] | – | – | – | – | – | 14.3 nM | 7.8 | 3.7 nM | 8.4
4 | EGTFISDYSIAMDKIHQQDFVNWLLAQK [GIP(3-30)] | – | – | – | – | – | 33.8 nM | 7.5 | 3.5 nM | 8.5
